The test addresses T1, SARS-COV-2 RBD (SARS-COV-2, UniProt P0DTC2 319-539).
T1 construct: also called WT RBD
Kind of test: ELISA, RBD coated on plate.

Residue numbers refer to the chain shown, from its start.

B1: C922 (antibody, V domains shown)
VH: QVQLVESGGGLVKPGGSLRLSCAGSGFTFTDYYMAWIRQAPGKGLEWVSYISTSDRFINYADSVKGRFTISRDDAKNSLYLQMNSLRAEDTAVYYCARDGGGYDRFDHWGQGTLVTVSS
VL: DIQMTQSPSSLSASVGDRVTITCQASQDISNLLNWYQQKAGKAPKLLIYDASNLETGVPSRFSGSGSGTDFTFTISSLQPEDIATYYCLQYDNLPLTFGQGTKLEIK
B1 showed a concentration for a half-maximal effect (EC50) of 2.42 ng/mL.

B2: C923 (antibody, V domains shown)
VH: QVQLVESGGGLVKPGGSLRLSCAASGFTFSDYHMTWIRQAPGKGLEWVSYISNRSTYRNYADSVKGRFTISRDNAKNSLYLQMNSLRAEDTAVYYCARDGGAYDRFDYWGQGTLVTVSS
VL: B1 VL with S30K, N31K, L32F, A40P, F71L, L89Q
The molecule B2 showed an EC50 of 1.95 ng/mL.

B3: C927 (antibody, V domains shown)
VH: QVQLVESGGGVVQPGRSLRLSCVASGFTFSYFDMHWVRQAPGKGLEWVALISHDGSTTFYGDSARGRFTISRDNSRNTLDLQMNSLRPEDTAVYFCAKPVDAAMFDFWGQGTLVTVS
VL: SYELTQPPSVSVAPGKTARITCGGNNIGSKSVHWYQQRPGQAPVLVIYYDSDRPSGIPERFSGSNSGNTATLTISRVEAGDEADFYCQVWDRSTNHLVVFGGGTQLTVL
Molecule B3 showed an EC50 of 3.77 ng/mL.

B4: C938 (antibody, V domains shown)
VH: QVQLVESGGGVVQPGRSLRLSCAASGFTFRSHAMHWVRQAPGKGLEWVAIISSDGFNKYYADSVKGRFTISRDNSKNTLYVHMNSLRVEDTAIYYCASGLLWFETREISGAPDYGMAVWGQGATVTVSS
VL: DIQMTQSPSSLSASVGDRVTITCRASQNISNFLNWYQQKPGKAPKLLIYAASSLQSGVPSRYSGSGSGTDFTLTISSLQAEDFATYYCQQSYSTPLTFGGGTKVEIK
B4 came in with an EC50 of 2.63 ng/mL.

B5: C951 (antibody, V domains shown)
VH: QVQLQESGPRLVKPSGTLSLTCAVSGGSISTTNWWSWVRQPPGKGLEWIGEIHHSGNTNYNPSLKSRVTISVDRSKNQFSLKLSSVTAADTAVYFCARDGGRPGDPFDIWGQGTMVTVSS
VL: QSALTQPASVSGSPGQSITISCTGTSSDVGGYNYVSWYQQHPGKAPNLMIYDVSDRPSGVSNRFSGSKSGNTASLTISGLQAEDEADYYCNSFTSNSTRVFGTGTKVTV
Turning to B5, the 50% effective concentration (EC50) is 0.81 ng/mL.

B6: C914 (antibody, V domains shown)
VH: QVQLQESGPGLVKPSQTLSLTCTVSGGSITSGDYYWTWIRQPPGKGLEWIGYIYYSGNTYYNLSLRSRITISEDTSKNQFSLKLRSVTAADTAVYYCARAMITFGGVIVVLDYWGQGTLVTVSS
VL: QSALTQPPSASGSPGQSVTISCTGTSTDVGGYNFVSWYQQHPGKAPKLMIYEVSKRPSGVPDRFSGSKSGNTASLTVSGLQAEDEADYYCSSYAGSNILYVFGTGTKVTVL
As for B6, the EC50 was 1.59 ng/mL.

B7: C915 (antibody, V domains shown)
VH: QVQLQESGPGLVKPSQTLSLTCTVSGGSISSGDYYWSWIRQPPGKGLEWIGYIYYSDSTYYNPSLRTRVTISVDTSKNQFSLKLTSVTAADTAVYYCARAMITFGGVIVLYDYWGQGTLVTVSS
VL: B6 VL with T27S, F34Y, S54T, D62A, N97I, I98L
As for B7, it took 3.49 ng/mL to reach a half-maximal effect (EC50).

B8: C934 (antibody, V domains shown)
VH: QVQLVQSGAEVKKPGASVKVSCKASGYTFTDYYIHWVRQAPGQGLEWMGWINPNSGGTNYAQKFQGRVTMTRDTSISTAYMDLSRLRSDDTAVYYCARDVIITMGRGVVFRMDVWGQGTTVTVSS
VL: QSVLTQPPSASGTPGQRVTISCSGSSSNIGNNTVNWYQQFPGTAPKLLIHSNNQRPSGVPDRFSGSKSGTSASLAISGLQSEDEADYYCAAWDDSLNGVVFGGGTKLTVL
B8 registered a concentration giving a half-maximal response (EC50) of 0.95 ng/mL.

B9: C918 (antibody, V domains shown)
VH: QVQLVESGGGLVKPGGSLRLSCTASGFTFSDYYMTWLRQAPGKGLEWVSYISSTSPYTSYADSVKGRFTISRDNARNSVYLQMNSLRAEDTAIYYCARVPPPQRLHPFDVWGQGTMVTVSS
VL: DIQMTQSPSTLSASVGDRVTITCRASQSISSWLAWYQQKPGKAPKLLIYQASSLESGVPSRFSGSGSGTDFTLTISSLQPDDFATYYCQQYFRYSWTFGQGTKVEI
For B9, the midpoint of the response, the EC50, lay at 1.78 ng/mL.

B10: C913 (antibody, V domains shown)
VH: EVQLVESGGVVVQPGGSLRLSCAASGFTFDDYSMHWVRQVPGKGLEWIAVIFWDGTSTYYADSVKGRFTISRDNSKKSLYLQMNSLRSEDTALYYCAKDSEDCSSTSCYVDHWGQGTLVTVSS
VL: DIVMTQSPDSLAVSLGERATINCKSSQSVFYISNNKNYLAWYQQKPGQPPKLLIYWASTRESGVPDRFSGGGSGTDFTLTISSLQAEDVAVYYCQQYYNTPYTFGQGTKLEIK
B10 had an EC50 of 2.58 ng/mL.

B11: C920 (antibody, V domains shown)
VH: QLQLQESGPGLVKPSETLSLTCAVSGGSISNSPFYWGWIRQPPGKGLECIGSIYYSGSTYYNPSLKSRVTISVDTSKKQFSLKLSSVTAADTAVYYCARHFADGSGRVVDSWGQGILVTVSS
VL: EIVLTQSPATLSLSPGERATLSCRASQSVSSYLAWYQQKPGQAPSLLIYDVSNRATGIPARFSGSGSGTDFTLTISSLEPEDFAVYYCQQRINWPLYTFGQGTKLEIK
B11 displayed a 50% effective concentration (EC50) of 2.35 ng/mL.

B12: C921 (antibody, V domains shown)
VH: B11 VH with G37A, S56T, K77T, S85R, S111Y, I116T
VL: B11 VL with S30T, S31T, S45R, N53S, I92S
As for B12, the response was half-maximal at 3.91 ng/mL (EC50).

B13: C916 (antibody, V domains shown)
VH: EVQLVESGGGLVQPGGSLRLSCAASGFTFSNYDMHWVRQATGRGLEWVSTIGTAGDTYYPGSVKGRFTISRENAKNSLYLQMNSLRAGDTALYYCARVRYDSSGYFWSLDYWGQGTLVTVSS
VL: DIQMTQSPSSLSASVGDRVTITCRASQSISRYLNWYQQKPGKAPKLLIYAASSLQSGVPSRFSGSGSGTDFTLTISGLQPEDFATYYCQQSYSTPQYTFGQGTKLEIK
In the case of B13, the midpoint of the response, the EC50, lay at 1.97 ng/mL.

B14: C917 (antibody, V domains shown)
VH: B13 VH with R43K, E46D, L92V, Y100F, S102T
VL: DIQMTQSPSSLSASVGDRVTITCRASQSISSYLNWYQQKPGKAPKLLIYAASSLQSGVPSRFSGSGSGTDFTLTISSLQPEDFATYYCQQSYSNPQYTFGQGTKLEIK
For the molecule B14, the EC50 was 1.05 ng/mL.

B15: C928 (antibody, V domains shown)
VH: QVQLVESGGGVVQPGRSLRLSCAASGFTFSFFDMHWVRQAPGKGLEWVADISYDGSNQYYGDSVKGRFTISRDNSKSTLYLQMNSLRAEDTAVYYCAKPVDTAMFDSWGQGTLVTVSS
VL: SYELTQPPSVSVAPGETARITCGGNNIGHKSVHWYQQQPGQAPVLVIYYDSERPSGIPERFSGSNSGNTATLTISRVEAGDEADYHCQVWDGGNDHLVIFGGGTKLTVL
B15 yielded a 50% effective concentration (EC50) of 4.14 ng/mL.

B16: C931 (antibody, V domains shown)
VH: QVQLVESGGGVVQPGRSLRLSCAASGFSFSTYGMHWVRQAPGKGLEWVAVISFDGSQKYYGDSVKGRFTISRDNPKNTLDLQMNSLRAEDTAVYYCAKVVVRGVIISLYYGMDVWGQGTTVTVSS
VL: not shown
In turn, B16 had a concentration giving a half-maximal response (EC50) of 2.57 ng/mL.

B17: C926 (antibody, V domains shown)
VH: QVQLVESGGGVVQPGRSLRLSCAASGFGLITYSMHWVRQAPGKGLEWVGLISFDGNTTYYADSVRGRFTISRDNLANILYLQMNSLRPDDTALYYCARDKRGVIRGLLNFWGQGSLVTVSS
VL: DIVMTQSPDSLAVSLGERATINCKSSQSLLPSSNSNNYLAWYQQKSGQPPNLLIYWASTRESGVPDRFSGSGSETDFSLTISNLQAEDVAVYYCQQYYNTPHTFGGGTKVEI
In turn, B17 displayed a concentration for a half-maximal effect (EC50) of 4.72 ng/mL.

B18: C929 (antibody, V domains shown)
VH: EVQLVESGGGLIQPGGSLRLSCAASGFTVSSNYMTWVRQAPGKGLEWVSVIYSGGTTYYADSVKGRFTISRDNSKNTLYLQMNSLRAEDTAVYYCARDLVVWGMDVWGQGTTVTVSS
VL: DIQLTQSPSFLSASVGDRVTITCRASQGISSYLAWYQQKPGKAPKLLIYAASTLQSGVPSRFSGSGSGTEFTLTISSLQPEDFATYYCQLLNSYPYTFGQGTKLEIK
Turning to B18, the concentration for a half-maximal effect (EC50) came out at 2.07 ng/mL.

B19: C936 (antibody, V domains shown)
VH: B18 VH with T35S, T56S, Y58F, V100G, V101T, W102G, G103L, M104F, V106Y, T112L
VL: DIQLTQSPSFLSASVGDRVTITCRASQGISSYLAWYQQKPGKAPKLLIYAASTLQSGVPSRFSGSGSGTEFTLTISSLQPEDFATYYCQQLDSYPPGTFGPGTKVDIK
B19 displayed an EC50 of 1.56 ng/mL.

B20: C937 (antibody, V domains shown)
VH: EVQLVESGGGLIQPGGSLRLSCAASELTVSSNYMSWVRQAPGKGLEWVSVIYPGGSTFYADSVKGRFTISRDNSKNTLYLQMNSLRAEDTAVYYCARDLGTGLFDYWGQGTLVTVSS
VL: B19 VL with Y87F, Q90L, D92N, Y94N
Take B20: the 50% effective concentration (EC50) was determined as 0.97 ng/mL.

B21: C930 (antibody, V domains shown)
VH: B18 VH with I12F, S21A, F27I, T35S, A40P, S53A, T56S, Y58F, F67L, M82I
VL: B18 VL with L90Q, S93T
For the molecule B21, the EC50 worked out at 1.24 ng/mL.

B22: C939 (antibody, V domains shown)
VH: QVQLVESGGGVVQPGRSLRLSCAASGFTFSSYAMHWVRQAPGKGLESVALISHDGSNKYHADSVKGRLTISRDTSKNTLYLQMDSLRPEDTAVYYCASGLLWFETAGGSGAPDYGMAVWGQGTTVTVSS
VL: DIQMTQSPSSLSASVGDRVTITCRASQSISTYLNWYQQKPGRAPKFLIYAASSLQSGVPSRFSGSGSGTDFTLIISGLQPEDFATYFCQQSYNTPLTFGGGTKVEIK
Consider B22, for which the response was half-maximal at 3.62 ng/mL (EC50).

B23: C932 (antibody, V domains shown)
VH: QVQLVESGGSVVQPGKSLRLSCAGSGFAFSTYGMHWVRQAPGKGLEWVAVISSDGGNKYYADSVKGRFTISRDNYENTLYLQMNSLGAEDTAVYYCAKVALRGVFISLYYGMDVWGQGTTVTVSS
VL: SYELTQPPSVSVTPGQTASITCSGDKLGDKYACWFLQKPGQSPLLVIYQDTKRPSGIPDRLSGSKSGNTATLTISGTQAMDEADYYCQTWDSSAVVFGGGTKLTV
With B23, the EC50 is 3.57 ng/mL.

B24: C924 (antibody, V domains shown)
VH: QVQLVESGGGVVQPGRSLRLSCAASGFTFSSYGMHWVRQAPGKGLEWVAVISDDGSNKYYADSVKGRFTISRDNSKNTLYLQMNSLRAEDTAVYYCAKSWWLSENWFDPWGQGTLVTVSS
VL: EIVMTQSPATLSVSPGERATLSCRASQSVSSNLAWYQQKPGQAPRLLIYGASTRATGIPARFSGTGSGTEFTLTISSLQSEDFAVYYCQQYNNWPLTFGGGTKVEIK
In turn, B24 displayed an EC50 of 2.5 ng/mL.

B25: C925 (antibody, V domains shown)
VH: B24 VH with S31N, M34L, I51T, S56N, N57R, N74D, S85N, A88T
VL: B24 VL with S30R, K39R, S52F, G64V, T65S, S76D
Consider B25, for which the half-maximal effective concentration (EC50) amounted to 2.26 ng/mL.

B26: C912 (antibody, V domains shown)
VH: QVQLVESGGGVVQPGRSLRLSCAASGFSFSTYTMHWVRQTPDKGLEWVAVISDDGKNKYYADSMKGRFTISRDNSKNTLYLQMSSLRPEDTAVYYCARDLENVMIEVALESWGQGTLVTVSS
VL: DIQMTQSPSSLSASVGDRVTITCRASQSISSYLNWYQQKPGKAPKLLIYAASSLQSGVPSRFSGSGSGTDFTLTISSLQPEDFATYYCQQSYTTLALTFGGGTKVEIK
In turn, B26 returned an EC50 of 2.45 ng/mL.

These data come from patent US20240218057A1 (ROCKEFELLER UNIVERSITY, published 2024).
